The test addresses TPP-2305 (hTNFRSF12Aaa28-80) (Human) (UniProt Q9NP84). The experiment in a line: SPR (Biacore T100), IgG captured, TPP-2305 injected, 1:1 model. Background: Surface plasmon resonance follows binding to a sensor surface in real time, without labels.

This is an account of results in patent US20160237160A1, “ANTI-TWEAKR ANTIBODIES AND USES THEREOF” (BAYER PHARMA AKTIENGESELLSCHAFT, priority 2013, published 2016).

B1: ITEM-1 (antibody, from another filing, mouse IgG1, V domains shown)
VH: EVKLEESGGGLVQPGGSMKLSCVASGFSFSNYWMNWVRQSPEKGLEWVAEIRLKSNNYATHYAESVKGRFTISRHDSKSSVYLQMNNLRAEDTGIYYCTRAYADYFDYWGQGTTLTVSS
VL: DIVLTQSPASLVVSLGQRATISCRASQSVSTSTYSYMHWYQQKPGQPPKILIKYASNLESGVPARFSGSGSGTDFTLNIHPVEEEDTATYYCQHSWEIPYTFGGGTKLEIKR
B1 displayed a Kd of 2.9 nM, a koff of 0.011 s⁻¹ and an on-rate constant (kon) of 3.8e+06 M⁻¹ s⁻¹.

As a reminder, the Kd is the free concentration of one partner at which half of the binding sites on the other are occupied at equilibrium, for simple one-to-one binding. High values mean a looser complex, low ones a tighter complex. The term koff denotes the rate constant with which the complex falls apart. Read a high koff as fast dissociation. In general, kon refers to the second-order rate constant of association.
